This note sets out measurements from publication PMC8710476 (Frontiers in Immunology, 2021).

The target of this assay is T1, SARS-CoV-2 full-length spike, WT D614G, expressed on the cell surface (SARS-CoV-2, wild type with D614G, UniProt A0A6H1PJZ3, D614G).
T1 construct: also called wild-type spike
Nature of the assay: flow cytometry on cells. As to conditions: one partner purified. For orientation: In flow cytometry, cells or beads pass a laser one at a time.

B1: REGN10987 (class III) (antibody, V domains shown)
VH: QVQLVESGGGVVQPGRSLRLSCAASGFTFSNYAMYWVRQAPGKGLEWVAVISYDGSNKYYADSVKGRFTISRDNSKNTLYLQMNSLRTEDTAVYYCASGSDYGDYLLVYWGQGTLVTVSS
VL: QSALTQPASVSGSPGQSITISCTGTSSDVGGYNYVSWYQQHPGKAPKLMIYDVSKRPSGVSNRFSGSKSGNTASLTISGLQSEDEADYYCNSLTSISTWVFGGGTKLTVL
Turning to B1, the binding result is “binds”.
